Results from patent US20060084593A1.

Target: gp120/CD4 complex (human immunodeficiency virus (HIV), hxbc2) (UniProt P04578)
Test: SPR (Biacore); 48d immobilized; gp120 50 nM, CD4 250 nM, heparin dp16 at 125 nM (0.6 µg/ml) as inhibitor

antibody 48d specific for the CD4i epitope
% inhibition of the interaction by heparin dp16 (125 nM): 90 to 100%
